Experimental data from PMC4728126, “Stable G protein-effector complexes in striatal neurons: mechanism of assembly and role in neurotransmitter signaling” (eLife, 2015).

Molecular target: adenylyl cyclase type 5 (mouse (endogenous in striatum)) (UniProt P84309)
Sequence (P84309 whole entry): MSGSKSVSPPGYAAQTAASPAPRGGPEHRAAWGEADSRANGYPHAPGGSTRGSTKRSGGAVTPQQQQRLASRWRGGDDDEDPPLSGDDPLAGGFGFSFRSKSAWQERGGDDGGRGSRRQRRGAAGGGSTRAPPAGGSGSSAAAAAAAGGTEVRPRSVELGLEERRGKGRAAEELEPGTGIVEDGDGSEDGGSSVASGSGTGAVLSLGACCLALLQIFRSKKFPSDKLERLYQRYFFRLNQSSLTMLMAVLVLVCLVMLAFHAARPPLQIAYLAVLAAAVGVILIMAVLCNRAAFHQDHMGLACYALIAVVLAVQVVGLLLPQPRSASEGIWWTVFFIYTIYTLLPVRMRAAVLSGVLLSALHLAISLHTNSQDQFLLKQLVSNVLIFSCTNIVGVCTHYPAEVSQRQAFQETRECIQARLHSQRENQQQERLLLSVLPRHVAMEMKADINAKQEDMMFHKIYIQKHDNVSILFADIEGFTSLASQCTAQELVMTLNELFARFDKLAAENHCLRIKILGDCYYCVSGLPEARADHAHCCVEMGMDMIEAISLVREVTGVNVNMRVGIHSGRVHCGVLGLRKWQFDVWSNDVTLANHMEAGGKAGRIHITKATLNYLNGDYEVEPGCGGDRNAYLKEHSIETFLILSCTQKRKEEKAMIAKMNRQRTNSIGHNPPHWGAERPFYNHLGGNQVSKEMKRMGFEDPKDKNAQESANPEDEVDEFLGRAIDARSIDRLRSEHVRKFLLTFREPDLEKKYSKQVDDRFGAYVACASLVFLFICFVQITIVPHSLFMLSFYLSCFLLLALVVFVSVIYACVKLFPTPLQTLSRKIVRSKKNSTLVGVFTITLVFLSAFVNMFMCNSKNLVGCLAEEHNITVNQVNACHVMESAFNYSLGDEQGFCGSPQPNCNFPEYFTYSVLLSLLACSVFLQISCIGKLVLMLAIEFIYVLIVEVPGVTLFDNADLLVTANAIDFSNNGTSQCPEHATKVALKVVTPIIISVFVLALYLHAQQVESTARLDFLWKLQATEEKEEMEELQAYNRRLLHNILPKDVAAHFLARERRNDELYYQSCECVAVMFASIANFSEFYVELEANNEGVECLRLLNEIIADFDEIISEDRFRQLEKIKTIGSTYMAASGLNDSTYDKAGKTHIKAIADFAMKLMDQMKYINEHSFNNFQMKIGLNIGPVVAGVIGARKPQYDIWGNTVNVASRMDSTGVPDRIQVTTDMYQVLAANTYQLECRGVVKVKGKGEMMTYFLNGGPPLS

Gαs-GTPγS, sequence (P63092 whole entry): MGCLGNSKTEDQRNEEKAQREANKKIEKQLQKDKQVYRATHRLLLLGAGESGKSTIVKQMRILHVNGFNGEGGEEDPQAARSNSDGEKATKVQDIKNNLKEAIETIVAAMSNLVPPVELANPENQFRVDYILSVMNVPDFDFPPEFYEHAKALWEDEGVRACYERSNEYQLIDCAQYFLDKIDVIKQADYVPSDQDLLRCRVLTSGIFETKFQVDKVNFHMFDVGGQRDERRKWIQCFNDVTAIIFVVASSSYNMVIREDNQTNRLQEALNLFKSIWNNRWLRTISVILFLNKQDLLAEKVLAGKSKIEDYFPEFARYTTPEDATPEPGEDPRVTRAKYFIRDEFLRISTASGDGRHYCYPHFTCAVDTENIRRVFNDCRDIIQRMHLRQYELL

- EC50 of Gαs-GTPγS-mediated activation of adenylyl cyclase in striatal membranes, PhLP1-treated reaction (0.5 μM purified PhLP1): 22.3 nM
- EC50 of Gαs-GTPγS-mediated activation of adenylyl cyclase in striatal membranes, control reaction: 16.2 nM
Substance: Gαs-GTPγS (from UniProt P63092 1-394) (natural protein)
